Assays:
[1] = molecular target: MPyV VP1 (major capsid protein of mouse polyomavirus) as VLPs of the VarB structure (mouse polyomavirus (MPyV)) (UniProt P03090); assay: co-purification with VLPs (SDS-PAGE, Western blot, band densitometry); VP1 and FLAG-Cap-tVP3 co-expressed in insect cells; purified VLPs VarB resolved by SDS-PAGE, anti-FLAG blot; densities of Coomassie-stained bands measured
[2] = molecular target: VarC (VP1-Cap-His: entire PCV2b Cap fused to the C-terminus of MPyV VP1) (mouse polyomavirus (MPyV) | porcine circovirus 2b (PCV2b)) (UniProt P03090); assay: native gel or EMSA; blue native PAGE (BN-PAGE) of purified VarC, native 3-12% gradient gel, Gelcode staining

Substance	stoichiometry N (FLAG-Cap-tVP3 molecules per one particle) [1]	stoichiometry N ([1]; scale: molecules of Cap protein per one VLP)	stoichiometry N [2]
FLAG-Cap-tVP3 (entire PCV2b Cap fused with truncated MPyV minor capsid protein VP3)	12	14	
VarC (VP1-Cap-His: entire PCV2b Cap fused to the C-terminus of MPyV VP1) (from UniProt P03090 1-383)			10

From article PMC5602543
